Test results taken from the supplement of paper PMC9112550, “Optimization of the antimicrobial peptide Bac7 by deep mutational scanning” (BMC Biology, 2022).

tested on: Escherichia coli TOP10; assay: shrunken log2 fold change of peptide-encoding DNA abundance (4.5 h post-induction vs induction); higher = less antimicrobial activity (less host growth inhibition); details: time post-induction: 4.5 h; library: site-saturation at positions 5, 18, 19, 20
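Further: peptides expressed intracellularly from a pBAD plasmid library in pooled LB shake-flask culture, induced with 0.3% L-arabinose, DNA abundance read by NGS, three biological replicates, DESeq2 with apeglm shrinkage.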

Row | Sequence | shrunken log2 fold change
1 | RRIRARPPRLPRPRPRPERWPRP | 0.956
2 | RRIRARPPRLPRPRPRPESMPRP | 0.77
3 | RRIRARPPRLPRPRPRPESTPRP | 1.05
4 | RRIRARPPRLPRPRPRPETHPRP | 0.56
5 | RRIRARPPRLPRPRPRPETRPRP | 0.662
6 | RRIRARPPRLPRPRPRPEWSPRP | 0.949
7 | RRIRARPPRLPRPRPRPEYTPRP | -0.0194
8 | RRIRARPPRLPRPRPRPFACPRP | 0.829
9 | RRIRARPPRLPRPRPRPFAKPRP | 0.349
10 | RRIRARPPRLPRPRPRPFALPRP | 0.185
11 | RRIRARPPRLPRPRPRPFAYPRP | -0.289
12 | RRIRARPPRLPRPRPRPFCAPRP | 0.394
13 | RRIRARPPRLPRPRPRPFCKPRP | -0.25
14 | RRIRARPPRLPRPRPRPFCMPRP | 0.0299
15 | RRIRARPPRLPRPRPRPFEHPRP | 0.172
16 | RRIRARPPRLPRPRPRPFEKPRP | -0.122
17 | RRIRARPPRLPRPRPRPFFEPRP | 0.423
18 | RRIRARPPRLPRPRPRPFGHPRP | 0.132
19 | RRIRARPPRLPRPRPRPFHDPRP | -0.356
20 | RRIRARPPRLPRPRPRPFHQPRP | -0.211
21 | RRIRARPPRLPRPRPRPFHSPRP | -0.217
22 | RRIRARPPRLPRPRPRPFLQPRP | 0.123

Row | Sequence | shrunken log2 fold change
23 | RRIRARPPRLPRPRPRPFLRPRP | 0.0973
24 | RRIRARPPRLPRPRPRPFNKPRP | -0.0214
25 | RRIRARPPRLPRPRPRPFNRPRP | -0.277
26 | RRIRARPPRLPRPRPRPFPCPRP | 0.0215
27 | RRIRARPPRLPRPRPRPFQKPRP | 0.121
28 | RRIRARPPRLPRPRPRPFREPRP | -0.14
29 | RRIRARPPRLPRPRPRPFRGPRP | -0.0013
30 | RRIRARPPRLPRPRPRPFSVPRP | -0.107
31 | RRIRARPPRLPRPRPRPFTCPRP | 0.0835
32 | RRIRARPPRLPRPRPRPFVLPRP | -0.181
33 | RRIRARPPRLPRPRPRPGDNPRP | 0.133
34 | RRIRARPPRLPRPRPRPGDPPRP | 0.971
35 | RRIRARPPRLPRPRPRPGDQPRP | 0.804
36 | RRIRARPPRLPRPRPRPGFDPRP | 0.719
37 | RRIRARPPRLPRPRPRPGFRPRP | 0.555
38 | RRIRARPPRLPRPRPRPGGNPRP | 0.2
39 | RRIRARPPRLPRPRPRPGHLPRP | 0.337
40 | RRIRARPPRLPRPRPRPGHQPRP | 0.304
41 | RRIRARPPRLPRPRPRPGHYPRP | 0.186
42 | RRIRARPPRLPRPRPRPGKHPRP | 0.089
43 | RRIRARPPRLPRPRPRPGKVPRP | 0.0119
44 | RRIRARPPRLPRPRPRPGMSPRP | 0.649

Row | Sequence | shrunken log2 fold change
45 | RRIRARPPRLPRPRPRPGPGPRP | 1.08
46 | RRIRARPPRLPRPRPRPGPPPRP | 0.736
47 | RRIRARPPRLPRPRPRPGQWPRP | 0.466
48 | RRIRARPPRLPRPRPRPGSMPRP | 0.135
49 | RRIRARPPRLPRPRPRPGTIPRP | -0.0682
50 | RRIRARPPRLPRPRPRPGVFPRP | 0.502
51 | RRIRARPPRLPRPRPRPGVIPRP | 0.0533
52 | RRIRARPPRLPRPRPRPGVRPRP | 0.797
53 | RRIRARPPRLPRPRPRPGYFPRP | 0.212
54 | RRIRARPPRLPRPRPRPGYQPRP | 0.0478
55 | RRIRARPPRLPRPRPRPHAKPRP | -0.0556
56 | RRIRARPPRLPRPRPRPHAQPRP | 0.122
57 | RRIRARPPRLPRPRPRPHARPRP | 0.156
58 | RRIRARPPRLPRPRPRPHASPRP | -0.0111
59 | RRIRARPPRLPRPRPRPHEHPRP | 0.0352
60 | RRIRARPPRLPRPRPRPHELPRP | 0.0601
61 | RRIRARPPRLPRPRPRPHFKPRP | 0.00608
62 | RRIRARPPRLPRPRPRPHGTPRP | -0.0246
63 | RRIRARPPRLPRPRPRPHHMPRP | -0.715
64 | RRIRARPPRLPRPRPRPHKAPRP | 0.102
65 | RRIRARPPRLPRPRPRPHKPPRP | 0.148
66 | RRIRARPPRLPRPRPRPHLEPRP | -0.124

Row | Sequence | shrunken log2 fold change
67 | RRIRARPPRLPRPRPRPHLTPRP | -0.145
68 | RRIRARPPRLPRPRPRPHMLPRP | -0.196
69 | RRIRARPPRLPRPRPRPHMNPRP | -0.245
70 | RRIRARPPRLPRPRPRPHNGPRP | 0.0647
71 | RRIRARPPRLPRPRPRPHNMPRP | -0.446
72 | RRIRARPPRLPRPRPRPHNVPRP | -0.0333
73 | RRIRARPPRLPRPRPRPHNWPRP | 0.129
74 | RRIRARPPRLPRPRPRPHSHPRP | 0.144
75 | RRIRARPPRLPRPRPRPHSQPRP | 0.0561
76 | RRIRARPPRLPRPRPRPHTIPRP | -0.734
77 | RRIRARPPRLPRPRPRPHVDPRP | 0.142
78 | RRIRARPPRLPRPRPRPHWMPRP | 0.0379
79 | RRIRARPPRLPRPRPRPIAGPRP | 0.163
80 | RRIRARPPRLPRPRPRPIDWPRP | 0.0607
81 | RRIRARPPRLPRPRPRPIEYPRP | -0.267
82 | RRIRARPPRLPRPRPRPIGFPRP | -0.0732
83 | RRIRARPPRLPRPRPRPIGMPRP | 0.0267
84 | RRIRARPPRLPRPRPRPIHQPRP | -0.0255
85 | RRIRARPPRLPRPRPRPIIHPRP | -0.216
86 | RRIRARPPRLPRPRPRPIINPRP | -0.174
87 | RRIRARPPRLPRPRPRPIKRPRP | 0.0415
88 | RRIRARPPRLPRPRPRPILKPRP | 0.221

Row | Sequence | shrunken log2 fold change
89 | RRIRARPPRLPRPRPRPILRPRP | 0.0733
90 | RRIRARPPRLPRPRPRPIMPPRP | 0.167
91 | RRIRARPPRLPRPRPRPINPPRP | 0.0479
92 | RRIRARPPRLPRPRPRPIPSPRP | -0.156
93 | RRIRARPPRLPRPRPRPIQIPRP | -0.103
94 | RRIRARPPRLPRPRPRPIRRPRP | 0.24
95 | RRIRARPPRLPRPRPRPIRTPRP | 0.0627
96 | RRIRARPPRLPRPRPRPISKPRP | -0.401
97 | RRIRARPPRLPRPRPRPISNPRP | -0.174
98 | RRIRARPPRLPRPRPRPISRPRP | 0.354
99 | RRIRARPPRLPRPRPRPITTPRP | 0.1
100 | RRIRARPPRLPRPRPRPIVAPRP | 0.371
101 | RRIRARPPRLPRPRPRPIVIPRP | -0.194
102 | RRIRARPPRLPRPRPRPIWLPRP | 0.221
103 | RRIRARPPRLPRPRPRPIYCPRP | 0.241
104 | RRIRARPPRLPRPRPRPIYLPRP | -0.152
105 | RRIRARPPRLPRPRPRPKACPRP | 0.19
106 | RRIRARPPRLPRPRPRPKEEPRP | -0.0728
107 | RRIRARPPRLPRPRPRPKEFPRP | 0.355
108 | RRIRARPPRLPRPRPRPKESPRP | 0.602
109 | RRIRARPPRLPRPRPRPKGLPRP | 0.433
